Biological target: Yeast Hsp90 wild-type FRET hetero-dimer (donor 61C + biotinylated acceptor 385C) (yeast | D. melanogaster)

B1: cochaperone Aha1 (natural protein)
chain: MVVNNPNNWHWVDKNCIGWAKEYFKQKLVGVEAGSVKDKKYAKIKSVSSIEGDCEVNQRKGKVISLFDLKITVLIEGHVDSKDGSALPFEGSINVPEVAFDSEASSYQFDISIFKETSELSEAKPLIRSELLPKLRQIFQQFGKDLLATHGNDIQVPESQVKSNYTRGNQKSSFTEIKDSASKPKKNALPSSTSTSAPVSSTNKVPQNGSGNSTSIYLEPTFNVPSSELYETFLDKQRILAWTRSAQFFNSGPKLETKEKFELFGGNVISELVSCEKDKKLVFHWKLKDWSAPFNSTIEMTFHESQEFHETKLQVKWTGIPVGEEDRVRANFEEYYVRSIKLTFGFGAVL
increase in ATPase activity of Hsp90 in the presence of 3 µM Aha1, normalised to the activity without Aha1: 17 fold

Source: paper PMC7375816
